# Source: patent publication US20220064286A1 (Genentech, published 2022)
# Numbering of substitutions follows the chain as printed. Names may count otherwise.
# B1: h7E7.L1H2 (antibody, V domains shown)
# VH: EVQLVQSGAEVKKPGASVKVSCKASGYTFTEYSIYWVRQAPGQRLEWIGRIDPKNGRTYYVDKFKNRATLTADTSASTAYMELSSLRSEDTAVYFCTRIYGFYFDFWGQGTLVTVSS
# VL: DIQLTQSPSFLSASVGDRVTITCKGSQNVNKYLVWYQQKPGKAPKLLIYNTDNLQSGIPSRFSGSGSGTEYTLTISSLQPEDFATYFCYQYNNGFTFGQGTKVEIK
# notes: VH: I47W against h7E7.L1H1; FR/HVR pieces
# B2: h7E7.L5H9 (antibody, V domains shown)
# VH: B1 VH with I48M, A68V, L70I, A72R, F95Y, T97A
# VL: B1 VL with I58V, Y71F, F87Y
# notes: Fully humanized version; FR/HVR pieces
# B3: h7E7.L1H9 (antibody, V domains shown)
# VH: B1 VH with I48M, A68V, L70I, A72R, F95Y, T97A
# VL: B1 VL
# notes: VH: all seven Vernier residues back to human; FR/HVR pieces
# B4: h15C8.L5H9 (antibody, V domains shown)
# VH: B1 VH with Y32H, I48M, Y60F, A68V, L70I, A72R, F95Y, T97A, Y100D
# VL: B1 VL with N50S, I58V, Y71F, F87Y
# notes: as for B2
# B5: h15C8.L1H9 (antibody, V domains shown)
# VH: B1 VH with Y32H, I48M, Y60F, A68V, L70I, A72R, F95Y, T97A, Y100D
# VL: B1 VL with N50S
# notes: as for B3
# B6: h15C8.L1H3 (antibody, V domains shown)
# VH: B1 VH with Y32H, V37L, Y60F, A72T, T97A, Y100D
# VL: B1 VL with N50S
# notes: VH: I47W against h15C8.L1H1; FR/HVR pieces
# B7: h6B2.L2H5 (antibody, V domains shown)
# VH: EVTLKESGPALVKPTQTLTLTCTFSGFSLSTYGMGVSWIRQPPGKALEWLASIWWNGNTYYNPSLKSRLTITKDTSKNQVVLTMTNMDPVDTATYYCAHTGGAVITWFAYWGQGTLVTVSS
# VL: DIQMTQSPSSLSASVGDRVTITCKASQSVGKNIAWYQQKPGKAPKLLIYYASNRYTGVPSRFSGSGSGTDFTFTISSLQPEDIATYYCQHIYNSPYPFGQGTKVEIK
# notes: Fully humanized version; FR/HVR pieces in order
# Tests used:
# [1] = molecular target: T1, cynomolgus monkey (cyno) TIGIT protein (cynomolgus monkey, UniProt A0A7N9I9V4 89-209); experiment: SPR, against h7E7.L1H1 (implied)
# T1 sequence (A0A7N9I9V4 entry or part of it): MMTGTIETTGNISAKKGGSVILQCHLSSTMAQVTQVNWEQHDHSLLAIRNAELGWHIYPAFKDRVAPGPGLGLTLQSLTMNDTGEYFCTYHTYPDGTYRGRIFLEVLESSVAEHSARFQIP
# Experimental: (§1) Briefly, a series S CM5 biosensor chip was activated with N-ethyl-N′-(3-dimethylaminopropyl)-carbodiimide hydrochloride (EDC) and N-hydroxysuccinimide (NHS) reagents according to the supplier's (GE Healthcare Biosciences, Piscataway, N.J.) instructions, and a human antibody capture kit was applied to couple goat anti-human Fc IgGs in order to achieve approximately 10,000 response units (RU) on each flow cell, followed by blocking un-reacted groups with 1M ethanolamine.
# (§2) (flow rate: 30 μl/min) with no regeneration between injections. The sensorgrams were recorded and evaluated by BIAcore™ T200 Evaluation Software (version 2.0) after subtraction of reference cell signal. Association rates (kₒₙ) and dissociation rates (koff) were calculated using a simple one-to-one Langmuir binding model. The equilibrium dissociation constant (KD) was calculated as the ratio koff/kₒₙ.
# (§3) The first humanized versions, h6B2, L1H1, h10A5.L1H1, h7E7, L1H1, and h15C8.L1H1, which contain both rat CDRs and framework residues at Vernier positions, and the fully humanized versions, h6B2.L2H5, h10A5.L4H4, h7E7.L5H9, and h15C8.L5H9, which contain only rat CDRs were subject to BIAcore affinity measurement by comparison with original rat antibodies, rat6B2, rat10A5, rat7E7 and rat 15C8. For binding affinity determinations of TIGIT antibodies against human TIGIT, cynomolgus monkey TIGIT and human alanine-scanned TIGIT mutants by single-cycle kinetics, Surface Plasmon Resonance (SRP) measurement with a BIACORE™-T200 instrument was used, as described above.
# [2] = molecular target: T2, human TIGIT protein (human, UniProt Q495A1 22-141, limits assumed); experiment: SPR, against h7E7.L1H1 (implied)
# T2 construct: Recombinant protein (Genentech) used in ELISA screening and as SPR analyte; also called TIGIT antigen
# T2 sequence: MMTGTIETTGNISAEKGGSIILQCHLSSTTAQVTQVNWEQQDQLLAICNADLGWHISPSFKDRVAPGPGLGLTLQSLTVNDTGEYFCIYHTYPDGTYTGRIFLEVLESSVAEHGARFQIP
# Experimental: as §1, §2, §3
# [3] = molecular target: T1, cynomolgus monkey (cyno) TIGIT protein; experiment: SPR, captured mAb
# [4] = molecular target: T2, human TIGIT protein; experiment: SPR, captured mAb
# [5] = molecular target: T1, cynomolgus monkey (cyno) TIGIT protein; experiment: SPR, against h15C8.L1H1 (implied)
# Experimental: as §1, §2, §3
# [6] = molecular target: T2, human TIGIT protein; experiment: SPR, against h15C8.L1H1 (implied)
# Experimental: as §1, §2, §3
# [7] = molecular target: T3, hTIGIT mutant N70A (human, UniProt Q495A1); experiment: SPR (BIACORE) KD normalized to WT, N=2
# T3 sequence (TIGIT, looked up): T2 sequence with N49A
# [8] = molecular target: T4, hTIGIT mutant T117A (human, UniProt Q495A1); experiment: SPR (BIACORE) KD normalized to WT, N=2
# T4 sequence (TIGIT, looked up): T2 sequence with T96A
# [9] = molecular target: T5, hTIGIT mutant H111A (human, UniProt Q495A1); experiment: SPR (BIACORE) KD normalized to WT, N=2
# T5 sequence (TIGIT, looked up): T2 sequence with H90A
# [10] = molecular target: T6, hTIGIT mutant Q53A (human, UniProt Q495A1); experiment: SPR (BIACORE) KD normalized to WT, N=2
# T6 sequence (TIGIT, looked up): T2 sequence with Q32A
# [11] = molecular target: T7, hTIGIT mutant E60A (human, UniProt Q495A1); experiment: SPR (BIACORE) KD normalized to WT, N=2
# T7 sequence (TIGIT, looked up): T2 sequence with E39A
# [12] = molecular target: T8, hTIGIT mutant I68A (human, UniProt Q495A1); experiment: SPR (BIACORE) KD normalized to WT, N=2
# T8 sequence (TIGIT, looked up): T2 sequence with I47A
# [13] = molecular target: T9, hTIGIT mutant L65A (human, UniProt Q495A1); experiment: SPR (BIACORE) KD normalized to WT, N=2
# T9 sequence (TIGIT, looked up): T2 sequence with L44A
# [14] = molecular target: T10, hTIGIT mutant Y113A (human, UniProt Q495A1); experiment: SPR (BIACORE) KD normalized to WT, N=2
# T10 sequence (TIGIT, looked up): T2 sequence with Y92A
# [15] = molecular target: T11, hTIGIT mutant Q56A (human, UniProt Q495A1); experiment: SPR (BIACORE) KD normalized to WT, N=2
# T11 sequence (TIGIT, looked up): T2 sequence with Q35A
# [16] = molecular target: T2, human TIGIT protein; experiment: SPR (BIACORE) KD normalized to WT, N=2
# [17] = molecular target: T3, hTIGIT mutant N70A; experiment: SPR (BIACORE), N=2
# [18] = molecular target: T4, hTIGIT mutant T117A; experiment: SPR (BIACORE), N=2
# [19] = molecular target: T5, hTIGIT mutant H111A; experiment: SPR (BIACORE), N=2
# [20] = molecular target: T6, hTIGIT mutant Q53A; experiment: SPR (BIACORE), N=2
# [21] = molecular target: T7, hTIGIT mutant E60A; experiment: SPR (BIACORE), N=2
# [22] = molecular target: T8, hTIGIT mutant I68A; experiment: SPR (BIACORE), N=2
# [23] = molecular target: T9, hTIGIT mutant L65A; experiment: SPR (BIACORE), N=2
# [24] = molecular target: T10, hTIGIT mutant Y113A; experiment: SPR (BIACORE), N=2
# [25] = molecular target: T11, hTIGIT mutant Q56A; experiment: SPR (BIACORE), N=2
# [26] = molecular target: T2, human TIGIT protein; experiment: SPR (BIACORE), N=2
binder,measurement,setting,value
B1,fold drop in binding affinity,[1],> 100 fold
same,fold drop in binding affinity,[2],> 100 fold
B2,fold drop in binding affinity,[1],> 100 fold
same,fold drop in binding affinity,[2],> 100 fold
same,Kd,[3],> 100 nM
same,Kd,[4],> 100 nM
B3,fold drop in binding affinity,[1],> 100 fold
same,fold drop in binding affinity,[2],> 100 fold
B4,fold drop in binding affinity,[5],> 100 fold
same,fold drop in binding affinity,[6],> 100 fold
same,Kd,[3],> 100 nM
same,Kd,[4],> 100 nM
B5,fold drop in binding affinity,[5],> 100 fold
same,fold drop in binding affinity,[6],> 100 fold
B6,fold drop in binding affinity,[5],> 100 fold
same,fold drop in binding affinity,[6],> 100 fold
B7,Binding affinity drop vs. WT,[7],4 fold
same,Binding affinity drop vs. WT,[8],1.6 fold
same,Binding affinity drop vs. WT,[9],1.9 fold
same,Binding affinity drop vs. WT,[10],1.3 fold
same,Binding affinity drop vs. WT,[11],3.4 fold
same,Binding affinity drop vs. WT,[12],16.4 fold
same,Binding affinity drop vs. WT,[13],4.3 fold
same,Binding affinity drop vs. WT,[14],3.6 fold
same,Binding affinity drop vs. WT,[15],1.9 fold
same,Binding affinity drop vs. WT,[16],1 fold
same,Kd,[17],2.8 nM
same,Kd,[18],1.1 nM
same,Kd,[19],1.3 nM
same,Kd,[20],0.9 nM
same,Kd,[21],2.4 nM
same,Kd,[22],11.5 nM
same,Kd,[23],3 nM
same,Kd,[24],2.5 nM
same,Kd,[25],1.3 nM
same,Kd,[26],0.7 nM
same,Kd,[3],0.97 nM
same,koff,[3],0.00124 s⁻¹
same,kon,[3],1.28e+06 M⁻¹ s⁻¹
same,Kd,[4],0.48 nM
same,koff,[4],0.00222 s⁻¹
same,kon,[4],4.65e+06 M⁻¹ s⁻¹
